Reference: patent US20220227882A1 (TRUSTEES OF TUFTS COLLEGE, published 2022)

Key:
A462S = target: T1, A462S (Homo sapiens, UniProt P78325); experiment: high-throughput flow cytometry, HEK293 cells with mutant ADAM8, high stringency; range in parentheses; dotted box
T1 construct: expressed on HEK293 cells; also called human ADAM8 point mutant A462S
T1 sequence (ADAM8, looked up): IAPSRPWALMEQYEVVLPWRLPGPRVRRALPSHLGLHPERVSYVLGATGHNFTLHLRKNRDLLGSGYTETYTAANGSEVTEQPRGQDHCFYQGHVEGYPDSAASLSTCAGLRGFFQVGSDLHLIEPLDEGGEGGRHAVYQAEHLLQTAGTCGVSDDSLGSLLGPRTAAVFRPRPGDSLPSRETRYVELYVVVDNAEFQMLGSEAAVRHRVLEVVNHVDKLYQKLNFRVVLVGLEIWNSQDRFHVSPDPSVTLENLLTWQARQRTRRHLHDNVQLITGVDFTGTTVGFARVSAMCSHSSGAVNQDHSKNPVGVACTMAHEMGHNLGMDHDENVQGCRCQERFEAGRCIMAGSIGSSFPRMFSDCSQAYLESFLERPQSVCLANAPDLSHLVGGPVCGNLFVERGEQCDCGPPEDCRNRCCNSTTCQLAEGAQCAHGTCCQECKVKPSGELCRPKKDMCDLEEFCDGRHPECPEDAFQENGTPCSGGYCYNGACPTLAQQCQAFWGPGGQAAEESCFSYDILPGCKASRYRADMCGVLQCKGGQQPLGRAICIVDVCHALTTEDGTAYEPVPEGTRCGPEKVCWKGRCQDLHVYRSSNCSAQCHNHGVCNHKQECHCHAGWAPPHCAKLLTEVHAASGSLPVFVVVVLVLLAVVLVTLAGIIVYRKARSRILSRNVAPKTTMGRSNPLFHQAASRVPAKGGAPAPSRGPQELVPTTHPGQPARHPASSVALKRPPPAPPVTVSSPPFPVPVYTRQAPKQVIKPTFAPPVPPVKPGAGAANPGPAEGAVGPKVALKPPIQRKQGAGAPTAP
Procedure: A variety of experimental parameters were optimized for high-throughput flow cytometry including blocking buffer, and primary and secondary antibody concentrations, to identify the optimal conditions for screening. Through these studies ADP2 and ADP13 were determined to be high affinity binding antibodies.
Thus, for these studies antigen-binding fragments (Fabs) of ADP2 and ADP13, which bind with lower affinity than the full antibody, were generated. In addition, higher binding stringency conditions were tested, such as increased pH, salinity, and temperature, and/or increased washing, to weaken binding sufficiently to allow identification of critical binding residues in flow cytometry. The final experimental flow cytometry conditions were: primary antibody incubation with ADP2 Fab (0.50 μg/ml), ADP13 Fab (5.00 μg/ml) and Control Ab (0.16 μg/ml) for 60 minutes in flow cytometry buffer containing 10% goat serum in PBS (Ca²⁺ and Mg²⁺ free). […] Samples were washed three times after primary antibody incubation and twice after secondary antibody incubation with PBS (Ca²⁺ and Mg′ free). Next, HEK293 cells expressing WT or mutated ADAM8 proteins or EV DNA were incubated with ADP2 or ADP13 Fabs or Control Ab at their optimal concentrations. Fab binding was detected using Alexa Fluor 488-conjugated secondary antibodies and mean cellular fluorescence determined using the Intellicyt iQue flow cytometry platform. […] This counter-screen strategy facilitates the exclusion of mutants that are locally misfolded or that have an expression defect. Binding of each test Fab to each mutant clone in the alanine scanning library was determined, in duplicate, by high-throughput flow cytometry.

E444A = target: T2, E444A (Homo sapiens, UniProt P78325); experiment: high-throughput flow cytometry, HEK293 cells with mutant ADAM8, high stringency; range in parentheses
T2 construct: expressed on HEK293 cells; also called human ADAM8 point mutant E444A
T2 sequence (ADAM8, looked up): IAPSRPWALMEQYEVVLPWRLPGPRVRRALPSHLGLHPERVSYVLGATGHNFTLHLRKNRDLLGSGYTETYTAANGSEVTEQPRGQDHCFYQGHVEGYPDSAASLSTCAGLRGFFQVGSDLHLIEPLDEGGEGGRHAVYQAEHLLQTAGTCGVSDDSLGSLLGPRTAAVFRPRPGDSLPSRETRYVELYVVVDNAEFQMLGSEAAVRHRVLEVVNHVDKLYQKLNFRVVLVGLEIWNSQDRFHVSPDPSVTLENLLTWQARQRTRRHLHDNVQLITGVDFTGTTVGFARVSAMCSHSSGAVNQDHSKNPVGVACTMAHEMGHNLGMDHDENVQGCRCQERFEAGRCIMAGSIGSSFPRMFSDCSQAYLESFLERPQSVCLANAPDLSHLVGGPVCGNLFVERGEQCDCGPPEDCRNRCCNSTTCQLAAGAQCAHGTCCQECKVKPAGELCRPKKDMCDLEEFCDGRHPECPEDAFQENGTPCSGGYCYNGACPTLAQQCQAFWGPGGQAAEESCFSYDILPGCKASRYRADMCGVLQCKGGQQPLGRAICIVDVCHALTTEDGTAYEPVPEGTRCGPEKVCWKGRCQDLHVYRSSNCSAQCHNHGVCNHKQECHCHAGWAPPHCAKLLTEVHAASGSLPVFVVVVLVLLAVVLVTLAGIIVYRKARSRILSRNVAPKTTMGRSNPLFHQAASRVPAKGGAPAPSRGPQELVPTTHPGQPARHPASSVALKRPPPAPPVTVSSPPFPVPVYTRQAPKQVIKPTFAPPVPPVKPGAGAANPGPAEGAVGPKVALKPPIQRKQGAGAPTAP
Procedure, shortened: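 HEK293 cells expressing WT or alanine-mutant ADAM8 were stained for 60 min with ADP2 Fab (0.50 μg/ml) or ADP13 Fab (5.00 μg/ml) in PBS with 10% goat serum under high-stringency conditions. Detection used an Alexa Fluor 488 secondary, with mean cellular fluorescence measured by high-throughput flow cytometry in duplicate.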

Binding Reactivity (% WT) (A462S): 24.7 % WT
Binding Reactivity (% WT) (E444A): 70.8 % WT
B1: ADP13 Fab (Fab, V domains shown)
VH: EVQLQQSGPEMVKPGTSVKISCKASGYTFTDYYINWVKQSHGKSLEWIGDISPNIGGATYNPKFKGKAILTVDKSARTAYMELRSLTSEDSAVYCCTRGGSSYPYFYAMDYWGQGTSVTVSS
VL: DIVMSQSPSSLAVSVGEKVTMSCKSSQSLLYSSNQKKYLAWYQQKPGQSPKLLIYWASTRESGVPDRFTGSGSGTDFTLTISSVKAEDLAVYYCQQFYSYPYTFGGGTKLEINR
